Source: patent US20260055162A1

How the values were obtained:
Test in all cases: cell-based or functional assay
[1] = target: AA-SR-105 (SR-105), Fas ECD-Fas TM-CD3z ICD
[2] = target: AA-SR-120 (SR-120), Fas ECD-CD28 TM-CD3z ICD
[3] = target: AA-SR-115 (SR-115), BTLA ECD-CD28 TM-CD3z ICD
[4] = target: AA-SR-100 (SR-100), BTLA ECD-BTLA TM-CD3z ICD
[5] = target: AA-SR-127 (SR-127), TACTILE ECD-CD28 TM-CD3z ICD
[6] = target: AA-SR-112 (SR-112), TACTILE ECD-TACTILE TM-CD3z ICD
[7] = target: AA-SR-117 (SR-117), CD200R ECD-CD28 TM-CD3z ICD
[8] = target: AA-SR-102 (SR-102), CD200R ECD-CD200R TM-CD3z ICD
[9] = target: AA-SR-104 (SR-104), CTLA4 ECD-CTLA4 TM-CD3z ICD
[10] = target: AA-SR-119 (SR-119), CTLA4 ECD-CD28 TM-CD3z ICD
Sequence of AA-SR-119 (SR-119), CTLA4 ECD-CD28 TM-CD3z ICD (chain, as listed by the source limits assumed, form in doubt): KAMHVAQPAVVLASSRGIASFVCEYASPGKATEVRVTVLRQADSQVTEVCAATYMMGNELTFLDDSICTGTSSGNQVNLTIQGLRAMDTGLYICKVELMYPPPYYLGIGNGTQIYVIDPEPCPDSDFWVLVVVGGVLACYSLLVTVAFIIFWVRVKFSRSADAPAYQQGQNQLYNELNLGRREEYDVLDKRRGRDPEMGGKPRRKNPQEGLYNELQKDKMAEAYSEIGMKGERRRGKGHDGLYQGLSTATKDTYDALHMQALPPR

Sequence of AA-SR-117 (SR-117), CD200R ECD-CD28 TM-CD3z ICD (chain, as listed by the source limits assumed, form in doubt): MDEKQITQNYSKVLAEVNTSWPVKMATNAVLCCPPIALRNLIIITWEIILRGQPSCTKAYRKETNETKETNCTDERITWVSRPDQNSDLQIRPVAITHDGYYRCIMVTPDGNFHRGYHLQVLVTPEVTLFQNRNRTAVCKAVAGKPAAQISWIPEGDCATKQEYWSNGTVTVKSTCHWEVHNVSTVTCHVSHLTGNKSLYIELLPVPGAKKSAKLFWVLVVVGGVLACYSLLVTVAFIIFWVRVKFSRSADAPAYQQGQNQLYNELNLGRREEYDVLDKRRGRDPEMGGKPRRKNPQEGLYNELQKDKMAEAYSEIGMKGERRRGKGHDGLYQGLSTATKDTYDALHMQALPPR
Sequence of AA-SR-112 (SR-112), TACTILE ECD-TACTILE TM-CD3z ICD (chain, as listed by the source limits assumed, form in doubt): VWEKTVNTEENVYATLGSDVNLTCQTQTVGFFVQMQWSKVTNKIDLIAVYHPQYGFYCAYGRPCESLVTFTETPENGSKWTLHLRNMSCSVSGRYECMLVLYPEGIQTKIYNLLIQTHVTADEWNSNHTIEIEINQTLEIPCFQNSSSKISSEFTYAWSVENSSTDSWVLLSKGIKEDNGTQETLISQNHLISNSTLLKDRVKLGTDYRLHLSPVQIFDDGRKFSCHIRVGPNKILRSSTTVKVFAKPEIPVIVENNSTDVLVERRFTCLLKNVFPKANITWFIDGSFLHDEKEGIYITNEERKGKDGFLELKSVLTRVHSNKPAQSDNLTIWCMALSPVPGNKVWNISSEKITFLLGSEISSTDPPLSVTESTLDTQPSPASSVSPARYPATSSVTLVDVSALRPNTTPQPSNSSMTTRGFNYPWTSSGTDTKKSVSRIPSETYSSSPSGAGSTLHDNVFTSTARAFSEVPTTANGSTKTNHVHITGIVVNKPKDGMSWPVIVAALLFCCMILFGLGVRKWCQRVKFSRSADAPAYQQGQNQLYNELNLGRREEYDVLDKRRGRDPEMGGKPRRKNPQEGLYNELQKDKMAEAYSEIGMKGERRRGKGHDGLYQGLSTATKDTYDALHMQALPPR
Sequence of AA-SR-102 (SR-102), CD200R ECD-CD200R TM-CD3z ICD (chain, as listed by the source limits assumed, form in doubt): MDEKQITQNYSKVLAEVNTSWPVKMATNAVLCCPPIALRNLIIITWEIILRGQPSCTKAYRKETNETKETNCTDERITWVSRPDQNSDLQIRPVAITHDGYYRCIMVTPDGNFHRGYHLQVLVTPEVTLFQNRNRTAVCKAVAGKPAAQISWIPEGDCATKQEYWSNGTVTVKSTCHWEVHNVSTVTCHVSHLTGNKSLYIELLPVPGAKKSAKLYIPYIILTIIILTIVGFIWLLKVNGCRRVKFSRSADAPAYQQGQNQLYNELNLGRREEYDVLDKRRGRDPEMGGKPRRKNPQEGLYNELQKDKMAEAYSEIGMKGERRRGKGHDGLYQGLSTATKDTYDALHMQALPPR
Sequence of AA-SR-100 (SR-100), BTLA ECD-BTLA TM-CD3z ICD (chain, as listed by the source limits assumed, form in doubt): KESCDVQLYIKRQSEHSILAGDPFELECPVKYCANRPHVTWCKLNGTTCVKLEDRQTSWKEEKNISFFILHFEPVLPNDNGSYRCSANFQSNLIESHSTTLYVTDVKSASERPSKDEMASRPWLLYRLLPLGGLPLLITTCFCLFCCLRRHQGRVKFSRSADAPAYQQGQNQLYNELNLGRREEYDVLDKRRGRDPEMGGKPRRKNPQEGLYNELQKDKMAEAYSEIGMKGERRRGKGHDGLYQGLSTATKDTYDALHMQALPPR
Sequence of FasL recombinant protein (P48023 134-281 limits assumed): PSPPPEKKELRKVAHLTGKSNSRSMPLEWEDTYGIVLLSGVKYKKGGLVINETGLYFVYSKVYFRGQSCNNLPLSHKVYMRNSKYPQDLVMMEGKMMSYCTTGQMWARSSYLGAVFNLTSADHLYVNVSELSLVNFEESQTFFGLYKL
Sequence of AA-SR-120 (SR-120), Fas ECD-CD28 TM-CD3z ICD (chain, as listed by the source limits assumed, form in doubt): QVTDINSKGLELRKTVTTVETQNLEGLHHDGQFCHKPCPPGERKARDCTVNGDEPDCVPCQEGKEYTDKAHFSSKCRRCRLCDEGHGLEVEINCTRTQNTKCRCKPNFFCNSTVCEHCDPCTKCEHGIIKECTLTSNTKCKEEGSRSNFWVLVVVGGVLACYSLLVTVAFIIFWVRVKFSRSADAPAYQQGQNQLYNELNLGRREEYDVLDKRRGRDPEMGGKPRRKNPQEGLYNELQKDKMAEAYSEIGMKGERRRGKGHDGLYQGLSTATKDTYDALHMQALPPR
Sequence of AA-SR-115 (SR-115), BTLA ECD-CD28 TM-CD3z ICD (chain, as listed by the source limits assumed, form in doubt): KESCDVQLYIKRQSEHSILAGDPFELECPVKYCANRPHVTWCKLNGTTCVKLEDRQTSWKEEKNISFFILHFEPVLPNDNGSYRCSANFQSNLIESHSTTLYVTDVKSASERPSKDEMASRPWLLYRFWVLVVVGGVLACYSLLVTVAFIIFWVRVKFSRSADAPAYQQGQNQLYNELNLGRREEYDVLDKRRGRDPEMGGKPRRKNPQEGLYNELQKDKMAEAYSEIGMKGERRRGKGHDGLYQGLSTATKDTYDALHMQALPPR
Sequence of AA-SR-104 (SR-104), CTLA4 ECD-CTLA4 TM-CD3z ICD (chain, as listed by the source limits assumed, form in doubt): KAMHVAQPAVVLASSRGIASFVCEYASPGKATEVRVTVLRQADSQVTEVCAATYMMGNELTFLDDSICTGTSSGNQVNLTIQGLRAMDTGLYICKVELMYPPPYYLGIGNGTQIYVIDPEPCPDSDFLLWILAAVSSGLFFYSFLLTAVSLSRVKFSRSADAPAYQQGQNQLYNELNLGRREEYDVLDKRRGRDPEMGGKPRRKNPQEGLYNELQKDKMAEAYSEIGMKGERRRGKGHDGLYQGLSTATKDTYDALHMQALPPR
Sequence of AA-SR-105 (SR-105), Fas ECD-Fas TM-CD3z ICD (chain, as listed by the source limits assumed, form in doubt): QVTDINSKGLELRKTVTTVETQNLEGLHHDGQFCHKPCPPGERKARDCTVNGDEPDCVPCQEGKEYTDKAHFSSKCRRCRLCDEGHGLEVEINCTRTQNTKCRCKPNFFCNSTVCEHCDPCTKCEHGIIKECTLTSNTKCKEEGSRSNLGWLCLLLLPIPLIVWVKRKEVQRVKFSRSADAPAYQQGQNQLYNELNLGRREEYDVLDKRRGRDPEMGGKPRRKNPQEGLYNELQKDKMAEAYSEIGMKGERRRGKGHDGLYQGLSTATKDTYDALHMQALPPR
Sequence of AA-SR-127 (SR-127), TACTILE ECD-CD28 TM-CD3z ICD (chain, as listed by the source limits assumed, form in doubt): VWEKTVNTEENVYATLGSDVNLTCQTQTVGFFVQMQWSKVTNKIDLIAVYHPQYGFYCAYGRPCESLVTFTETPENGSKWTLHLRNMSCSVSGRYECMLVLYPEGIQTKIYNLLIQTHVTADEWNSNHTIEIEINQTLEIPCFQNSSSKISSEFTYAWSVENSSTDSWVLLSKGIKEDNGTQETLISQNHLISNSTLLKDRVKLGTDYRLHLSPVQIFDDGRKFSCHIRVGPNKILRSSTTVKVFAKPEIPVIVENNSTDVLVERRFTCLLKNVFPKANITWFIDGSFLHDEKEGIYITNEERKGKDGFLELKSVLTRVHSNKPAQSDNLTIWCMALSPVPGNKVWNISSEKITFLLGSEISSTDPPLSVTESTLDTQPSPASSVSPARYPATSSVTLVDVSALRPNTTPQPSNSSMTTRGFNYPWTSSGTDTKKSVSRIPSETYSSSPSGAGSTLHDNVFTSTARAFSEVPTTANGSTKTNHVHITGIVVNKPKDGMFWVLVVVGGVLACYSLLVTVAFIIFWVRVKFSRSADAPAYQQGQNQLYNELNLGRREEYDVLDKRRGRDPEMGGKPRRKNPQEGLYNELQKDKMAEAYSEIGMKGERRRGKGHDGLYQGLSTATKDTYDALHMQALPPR

With “FasL recombinant protein (from UniProt P48023 134-281) (ligand)” the CD69, fold-change of MFI over no stimulation, High (10 ug/mL) [1] was 70.2 fold, the CD69, fold-change of MFI over no stimulation, Low (0.4 ug/mL) [1] was 8.4 fold and the CD69, fold-change of MFI over no stimulation, Med. (2 ug/mL) [1] was 35.7 fold. It also gave a GFP, fold-change of MFI over no stimulation, High (10 ug/mL) [1] of 7.3 fold, a GFP, fold-change of MFI over no stimulation, Low (0.4 ug/mL) [1] of 1 fold and a GFP, fold-change of MFI over no stimulation, Med. (2 ug/mL) [1] of 4.6 fold. The CD69, fold-change of MFI over no stimulation, High (10 ug/mL) [2] was 162 fold, the CD69, fold-change of MFI over no stimulation, Low (0.4 ug/mL) [2] was 40.5 fold and the CD69, fold-change of MFI over no stimulation, Med. (2 ug/mL) [2] was 129 fold. The GFP, fold-change of MFI over no stimulation, High (10 ug/mL) [2] was 10.1 fold, the GFP, fold-change of MFI over no stimulation, Low (0.4 ug/mL) [2] was 2.4 fold and the GFP, fold-change of MFI over no stimulation, Med. (2 ug/mL) [2] was 11.2 fold.
anti-BTLA mAb clone MIH26 (antibody) was tested, and the CD69, fold-change of MFI over no stimulation, High (10 ug/mL) [3] was 9.2 fold, the CD69, fold-change of MFI over no stimulation, Low (0.4 ug/mL) [3] was 10.8 fold and the CD69, fold-change of MFI over no stimulation, Med. (2 ug/mL) [3] was 14.1 fold. The GFP, fold-change of MFI over no stimulation, High (10 ug/mL) [3] was 3.5 fold, the GFP, fold-change of MFI over no stimulation, Low (0.4 ug/mL) [3] was 5.1 fold and the GFP, fold-change of MFI over no stimulation, Med. (2 ug/mL) [3] was 6.9 fold. It also gave a CD69, fold-change of MFI over no stimulation, High (10 ug/mL) [4] of 125 fold, a CD69, fold-change of MFI over no stimulation, Low (0.4 ug/mL) [4] of 62.7 fold and a CD69, fold-change of MFI over no stimulation, Med. (2 ug/mL) [4] of 124 fold. The GFP, fold-change of MFI over no stimulation, High (10 ug/mL) [4] was 13 fold, the GFP, fold-change of MFI over no stimulation, Low (0.4 ug/mL) [4] was 6.1 fold and the GFP, fold-change of MFI over no stimulation, Med. (2 ug/mL) [4] was 7.5 fold.
anti-CD96 mAb clone NK92.39 (antibody) gave a CD69, fold-change of MFI over no stimulation, High (10 ug/mL) [5] of 2 fold, a CD69, fold-change of MFI over no stimulation, Low (0.4 ug/mL) [5] of 1.1 fold and a CD69, fold-change of MFI over no stimulation, Med. (2 ug/mL) [5] of 1.1 fold. It also gave a GFP, fold-change of MFI over no stimulation, High (10 ug/mL) [5] of 1 fold, a GFP, fold-change of MFI over no stimulation, Low (0.4 ug/mL) [5] of 1 fold and a GFP, fold-change of MFI over no stimulation, Med. (2 ug/mL) [5] of 0.8 fold. The CD69, fold-change of MFI over no stimulation, High (10 ug/mL) [6] was 3.9 fold, the CD69, fold-change of MFI over no stimulation, Low (0.4 ug/mL) [6] was 3.3 fold and the CD69, fold-change of MFI over no stimulation, Med. (2 ug/mL) [6] was 1 fold. For the same substance, the GFP, fold-change of MFI over no stimulation, High (10 ug/mL) [6] was 1.2 fold, the GFP, fold-change of MFI over no stimulation, Low (0.4 ug/mL) [6] was 1 fold and the GFP, fold-change of MFI over no stimulation, Med. (2 ug/mL) [6] was 0.9 fold.
Work on anti-CD200R mAb clone OX-108 (antibody) yielded a CD69, fold-change of MFI over no stimulation, High (10 ug/mL) [7] of 8.7 fold, a CD69, fold-change of MFI over no stimulation, Low (0.4 ug/mL) [7] of 0.9 fold and a CD69, fold-change of MFI over no stimulation, Med. (2 ug/mL) [7] of 1.1 fold. It also gave a GFP, fold-change of MFI over no stimulation, High (10 ug/mL) [7] of 5.9 fold, a GFP, fold-change of MFI over no stimulation, Low (0.4 ug/mL) [7] of 1.1 fold and a GFP, fold-change of MFI over no stimulation, Med. (2 ug/mL) [7] of 0.9 fold. The CD69, fold-change of MFI over no stimulation, High (10 ug/mL) [8] was 29.2 fold, the CD69, fold-change of MFI over no stimulation, Low (0.4 ug/mL) [8] was 1.3 fold and the CD69, fold-change of MFI over no stimulation, Med. (2 ug/mL) [8] was 4.9 fold. The GFP, fold-change of MFI over no stimulation, High (10 ug/mL) [8] was 6.8 fold, the GFP, fold-change of MFI over no stimulation, Low (0.4 ug/mL) [8] was 0.8 fold and the GFP, fold-change of MFI over no stimulation, Med. (2 ug/mL) [8] was 1.4 fold.
With “anti-CTLA-4 mAb clone 1003705 (antibody)” the CD69, fold-change of MFI over no stimulation, High (10 ug/mL) [9] was 7.2 fold, the CD69, fold-change of MFI over no stimulation, Low (0.4 ug/mL) [9] was 3.1 fold and the CD69, fold-change of MFI over no stimulation, Med. (2 ug/mL) [9] was 5.6 fold. For the same substance, the GFP, fold-change of MFI over no stimulation, High (10 ug/mL) [9] was 4.3 fold, the GFP, fold-change of MFI over no stimulation, Low (0.4 ug/mL) [9] was 2.2 fold and the GFP, fold-change of MFI over no stimulation, Med. (2 ug/mL) [9] was 3.8 fold. It also gave a CD69, fold-change of MFI over no stimulation, High (10 ug/mL) [10] of 6.2 fold, a CD69, fold-change of MFI over no stimulation, Low (0.4 ug/mL) [10] of 2.7 fold and a CD69, fold-change of MFI over no stimulation, Med. (2 ug/mL) [10] of 4.5 fold. The GFP, fold-change of MFI over no stimulation, High (10 ug/mL) [10] was 5.9 fold, the GFP, fold-change of MFI over no stimulation, Low (0.4 ug/mL) [10] was 2.6 fold and the GFP, fold-change of MFI over no stimulation, Med. (2 ug/mL) [10] was 4.6 fold.
